Measured values: US12630594B2, “Allergy antigen and epitope for same” (HOYU CO., LTD., priority 2017, dated 2026)

B1: Serotransferrin (protein)
chain: MKLLLVSALLGCFATVYAAPAEGMVRWCVKSEKELKKCHDLAANVAGFSCVRRDDSLECIQAIKREEADAITLDGGDIYIAGLHNYNLQPIIAEDYGEDSDTCYYAVAVAKKGTEFGFLDLRGKKSCHTGLGKSAGWNIPIGTLVTVGQIQWAGIEDRPVESAVSDFFNASCAPGANRDSQLCQLCMGDCSRSHNEPYYDYSGAFQCLKDGAGEVAFIKHLTVPAAEKASYELLCKDNTRAPIDSYKTCHLARVPAHAVVSRKDPRLANLIYSKLMAVTNFNLFSSDGYAAKNLMFKDSTQNLVQLPMTTDSFLYLGAEYMSTIRSLTKAQATGVTSRAIKWCAVGHKEKVKCDAWTINSFTDGDSRIECQDAPTVDECIKKIMRKEADAIAVDGGEVFTAGKCGLVPVMVEQYDEVRCSAPGEASSYFAVAVAKRGSGLTWTTLKGKRSCHTGLGRTAGWNIPMGLIHRRTMNCDFTTYFSKGCAPGFEVDSPFCAQCKGSGKSVGGDGSKCKASSEEQYYGYNGAFRCLVEDAGDVAFIKHTIVPEMTDGSGPVWAQNLMSSDFELLCQDGTTKPVTHFRECHLAKVPAHAVITRPESRGEVVSILLEQQARFGSSGSDSSFNMFKPDFGKNLLFKDSTKCLQEIPSGTKFQGFLGEEYMIAMQSLRECSNSTSDLEKACTFHSC
modifications: Serotransferrin
B2: Alpha-1,4-glucan phosphorylase (protein)
chain: MSKPLSDHDRKKQISVRGLAGVENVAELKVAFNRHLHFTLVKDRNVASKRDYYFALANTVRDHLVGRWIRTQQYYYEKDPKRVYYISLEFYMGRTLQNTMVNLALENACDEAIYQLGLDMEELEDMEEDAGLGNGGLGRLAACFLDSMASLGLAAYGYGIRYEFGIFNQKIVNGWQVEEADDWLRYGNPWEKARPEYMRPVKFYGRTEHTPEGVKWVDTQVVLALPYDTPIPGYRNNIVNTMRLWSAKAPCDFNLKDFNVGGYIQAVLDRNLCENISRVLYPNDNFFEGKELRLKQEYFVVAATLQDIVRRFKASKFGSREIVRTDFAQLPNKVAIQLNDTHPAMAIPELMRVLVDEEKLEWDKAWDVCVRTCAYTNHTVLPEALERWPIDLFHHLLPRHLEIIYEINRRFLQYVASKFPGDNDRLRRMSLIEEGECKKVNMAHMCIVGSHAVNGVARIHSEILVATLFKDFYELDPHKFQNKTNGITPRRWLVMCNPGLAEVIAERIGEEFVRDLDQLKKLLKFIDDDAFIRDIAKVKQENKLKFAVHLEEHYKVKINPQSMFDFQVKRIHEYKRQLLNCLHMITYYNRIKKEPNKHWTPRTIMVGGKAAPGYHTAKMIIRLITAIGEVVNHDPVIGDRLKVIFLENYRVTLAEKAIPSADLSEQISTAGTEASGTGNMKFMLNGALTIGTMDGANVEMAEEAGEKNLFIFGMRVEEVDAMDAGKGYHASEYYNRIPELKQAMDQISGGFFSHKQPDLFKELVDLLMHHDRFKVFADYEAYIKSQDKVNELYKKPKEWTKMVIHNIAGCGKFSSDRTISQYAREIWGMEPSLEKIPAPDEQLK
modifications: Alpha-1,4 glucan phosphorylase
B3: EEF1A2 binding protein-like (protein)
chain: MWKKKSKLTDQTATGQVGIKKRSKVPGVMITQYVEKIPDGKSHPDFTRKPIALTIQEGKFAFFKALVIGDPEPTVTWGRNNGDVSDTSKYVTKYDPATREHLFEMANVKPEQADTYKCFAANEFGRAVVTVVLNVIEVGFKKAQADSQVQPEAAVADFKSVLKRKSKIQPKMEKKEDGEIDPRFWELLISADKKDYESLMLEFGVTDFRFMLKTLNEIKKEREEEQAQFIENLANLKPIEVGPDGCATFSIDMDLIEQSSRIFLYKDGVMIPYSKELGDTIKHSLKIVGRKYQFSIRDLFPDDAGLYQVDVEDVNVFSTDFKIPMVDFLVKIQECKAMEREDAVFECVLSQPFGKIMWVGKNLPLEAGDKYDIEVSEDKLIHRLIIKDVAMVDKGIYAAVAGIKSCNAFLVVEADKGEPGKKKQRKTTRAGGAGVDLTAIAQEQAVKNTADREVLKEKVKAINDERAANATAAPETSAEAKAKVKVVEASQTGAPKQGPAVKGSDHKSVDNEGYSIKSGLSDVFALRGKKGELVCEMSHEVDGAWFKDGEKLSTTDGIAIVKDGTRHTMTIHSSSEDDTGVYHIEAGGFKSEAKVTVGELPAIDADDLHKFSKPVTIKVGQNASWKMPYTPQDNLEVKWFKDGKELKDGGGVKLVKEVKHSRLLLRECLRSDAGEIKIQLKNPFGTIEATSRLIVLDKPGPPEGPVEILETTSTVIELQWGAPKDDGGSPVTNYIIERQQLGQTVWKKMGDVAADKTTYRDRNVVHGKLYIYNIYAVNPEGTSDALQTEETMAGVLIFAGRPGAPKVVSASKTCINLKWEPPEDDGGIKIDGYQLEKRKKDTAQWIALNPVTEPIEVLEYAVKDVVEGAEYEFRVSAINVSGAGEFSLPSVMVTAKNPNMRPTFKDPEDFMVIRAGNSVRIKVLYEAEPPPEITWMKDNEPVSSFIQIINTEGCSQLVIPSTKRSDSGNYTIVAKNKVGEASFDIEVLVTDEPKPPGAVELEQIVHGKVIVSWEASPDQELDNRLYYMVAEHDSSTRMWHTVADRIFDNSYTANNIMPGREYHFKIYAKNDMGMSDPSMSPTWGINSNRIPINTNTPVEVSFEKPPSVLVPLKMHSPPKGFQMYMTCAIRGCPTPSVTWHLNNVCINGDSNYYITNSYGVCSMYILRVRPKDAGEYKVVAVNSFGKAECSTKLVVKD
modifications: EEF1A2 binding protein-like

System: IgE antibody in the serum of a fish-allergic patient
Assay: Immunoblotting of two-dimensional electrophoresis patterns of fish meat proteins with patient serum
Format: binding, human
Settings: spots in two-dimensional electrophoresis gel of proteins in fish; patients diagnosed with immediate-type allergy
Procedure: Proteins contained in fish were analyzed by the aforementioned technique to identify antigens of an allergy to fish. To be specific, proteins were extracted from fish meat and subjected to two-dimensional electrophoresis under the conditions described below.
The electrophoresis in the first dimension was isoelectric focusing, which was performed using isoelectric focusing gels with a gel-strip length of 5 to 10 cm and a gel pH range of 3 to 10. The pH gradient of the gels in the direction of electrophoresis was as follows: with the total gel-strip length being taken as 1, the gel-strip length up to pH 5 was “a=0.15 to 0.3”, the gel-strip length from pH 5 to 7 was “b=0.4 to 0.7”, and the gel-strip length above pH 7 was “c=0.15 to 0.3”. More specifically, the isoelectric focusing was performed using the IPG gels, Immobiline Drystrip (pH3-10NL), produced by GE Healthcare Bio-Sciences Corporation (hereinafter abbreviated as “GE”). The electrophoresis system used was IPGphor produced by GE. The maximum current of the electrophoresis system was limited to 75 μA per gel strip. The voltage program adopted to perform the first-dimensional isoelectric focusing was as follows: (1) a constant voltage step was performed at a constant voltage of 300 V until the volt-hours reached 750 Vhr (the current variation width during electrophoresis for 30 minutes before the end of this step was 5 μA); (2) the voltage was increased gradually to 1000 V for 300 Vhr; (3) the voltage was further increased gradually to 5000 V for 4500 Vhr; and then (4) the voltage was held at a constant voltage of 5000 V until the total Vhr reached 12000.
The electrophoresis in the second dimension was SDS-PAGE, which was performed using polyacrylamide gels whose gel concentration at the distal end in the direction of electrophoresis was set to 3 to 6% and whose gel concentration at the proximal end was set to a higher value than that at the distal end. More specifically, the SDS-PAGE was performed using NuPAGE 4-12% Bris-Tris Gels (IPG well, Mini, 1 mm) produced by Life Technologies. The electrophoresis system used was XCell SureLock Mini-Cell produced by Life Technologies. The electrophoresis was run at a constant voltage of 200 V for about 45 minutes using an electrophoresis buffer composed of 50 mM MOPS, 50 mM Tris base, 0.1% (w/v) SDS and 1 mM EDTA.
Identification of antigens by immunoblotting was carried out by taking all the steps up to the step of “Second-dimensional SDS-PAGE” as described above in Example 1, followed by the steps of “Transfer to membrane”, “Immunoblotting” and “Analysis” as described below.
To be specific, proteins in the second-dimensional electrophoresis gels were transferred to a membrane (PVDF membrane) according to the following procedure. • (1) The PVDF membrane was immersed in 100% methanol followed by milliQ water, and then moved into the transfer buffer to hydrophilize the PVDF membrane. • (2) After sponge, filter paper, the second-dimensional electrophoresis gels treated by second-dimensional SDS-PAGE, the hydrophilized PVDF membrane, filter paper, and sponge were put in place in this order, the transfer system was energized at a constant voltage of 30 V for one hour. Immunoblotting
Immunoblotting of the membrane was carried out using, as a primary antibody, a serum sample from patient 1 with a fish allergy or a serum sample from a non-fish-allergic subject. This fish-allergic patient 1 was a patient diagnosed with immediate-type allergy to fish. […]

Row | Molecule | specific binding to IgE antibodies from fish-allergic patients
1 | B1 | specific binding to IgE antibodies
2 | B2 | specific binding to IgE antibodies
3 | B3 | specific binding to IgE antibodies
